Ends that are not written are not given here.

In assay [1] the target is T1, His-RPS19 wt (human (cDNA from K562), UniProt P39019 1-145). Put plainly: pull-down.
Assay [2] concerns the target T1, His-RPS19 wt. As to the kind of experiment: thermal shift assay.

Consider FPMRGRGGFDRMPPGRGGR (also: biotin, position not given here) [biotinylated HNRNPK peptide P1], for which the binding result in assay [1] is on record as “binds”.
Same read-out and setting: next, FPMRGRGGFDRMPPGRGGR (also: biotinylated, position not given here) [biotinylated HNRNPK peptide P1m]: “binds”.
Turning to FPMRGRGGFDRMPPGRGGR (also: asymmetrically dimethylated, places not given here) [HNRNPK-derived peptide P1m (asymmetrically dimethylated)], in assay [2], the binding result was “binds”.
